Measured values: paper PMC8632722

Molecular target: His-TF-LqqP (Lysobacter enzymogenes OH11)
Test: MST

**Q.** With PcoI-His (enzyme) as the substance, how does the Kd read?
**A.** 646 nM
